Results from patent US8026218 (UNIVERSITY OF ARIZONA, dated 2011).
Read-outs that look alike come from different tables or passages of the source. Square brackets hold non-standard residues; d marks the D form. Ends that are not written are not given here. * marks the point of attachment. Glc = O-glucosyl on Ser side chain (Ser(OGlu)/Ser(OGlc)); NH(3,5-(CF3)2-benzyl) = FC(F)(F)c1cc(CN*)cc(C(F)(F)F)c1; OBzl(3,5-(CF3)2) = FC(F)(F)c1cc(CO*)cc(C(F)(F)F)c1; NHBn = c1ccc(CN*)cc1

B1: H-Tyr-D-Ala-Gly-Phe-Met-Pro-Leu-Trp-NH-Bzl (peptide)
peptide: H-Y[dA]GFMPLW-NHBn
modifications: also: TFA salt
notes: TFA salt; also called TY025
B2: DmtDAlaGlyPheNleProLeuTrpNMeBn(CF3)2 (peptide)
peptide: YAGFXPLW
modifications: Dmt at 1 (written Y); D-Ala at 2; Nle at 5 (written X); C-terminal NMe-3,5-Bzl(CF3)2 amide
notes: also called TY052
B3: H-Tyr-D-Ala-Gly-Phe-Met-Pro-Leu-Trp-O-3,5-Bzl(CF3)2 (peptide)
peptide: H-Y[dA]GFMPLW-{OBzl(3,5-(CF3)2)}
modifications: also: TFA salt
notes: TFA salt; also called TY005; TY5
B4: H-Tyr-D-Ala-Gly-Phe-Gly-Pro-Leu-Trp-O-3,5-Bzl(CF3)2 (peptide)
peptide: H-Y[dA]GFGPLW-{OBzl(3,5-(CF3)2)}
modifications: also: TFA salt
notes: TFA salt; also called TY006
B5: H-Tyr-D-Ala-Gly-Phe-D-Phe-Pro-Leu-Trp-O-3,5-Bzl(CF3)2 (peptide)
peptide: H-Y[dA]GF[dF]PLW-{OBzl(3,5-(CF3)2)}
modifications: also: TFA salt
notes: TFA salt; also called TY007
B6: TyrDAlaGlyPheSer(OGlu)ProLeuTrpNHBn(CF3)2 (peptide)
peptide: Y[dA]GFS(Glc)PLW-{NH(3,5-(CF3)2-benzyl)}
notes: also called TY042

Legend:
human δ opioid receptor [1] = target: T1, human δ opioid receptor (human, UniProt P41143 1-372); test: competition vs [3H]DPDPE, membranes of hDOR-transfected HN9.10 cells
T1 construct: whole, on cells; Assayed as membrane preparations of transfected cells; also called hDOR; DOR
T1 sequence (P41143 whole entry, stated change not applied): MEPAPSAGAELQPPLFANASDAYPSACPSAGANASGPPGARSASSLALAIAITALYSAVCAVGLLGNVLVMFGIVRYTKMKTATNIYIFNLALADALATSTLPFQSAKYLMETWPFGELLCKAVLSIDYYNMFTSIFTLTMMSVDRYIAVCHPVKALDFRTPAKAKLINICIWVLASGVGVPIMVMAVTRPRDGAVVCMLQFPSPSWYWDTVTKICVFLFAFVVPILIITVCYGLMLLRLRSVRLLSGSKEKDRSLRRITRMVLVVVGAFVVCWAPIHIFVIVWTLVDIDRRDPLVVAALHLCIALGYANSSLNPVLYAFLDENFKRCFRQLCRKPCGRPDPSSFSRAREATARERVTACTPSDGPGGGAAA

rat NK1 receptor [2] = target: T2, rat NK1 receptor (rat, UniProt P14600 1-407); test: competition vs [3H]substance P, membranes of rNK1-transfected CHO cells
T2 construct: whole, on cells; Assayed as membrane preparations of transfected CHO cells; also called rNK1; rNK-1
T2 sequence (P14600 whole entry): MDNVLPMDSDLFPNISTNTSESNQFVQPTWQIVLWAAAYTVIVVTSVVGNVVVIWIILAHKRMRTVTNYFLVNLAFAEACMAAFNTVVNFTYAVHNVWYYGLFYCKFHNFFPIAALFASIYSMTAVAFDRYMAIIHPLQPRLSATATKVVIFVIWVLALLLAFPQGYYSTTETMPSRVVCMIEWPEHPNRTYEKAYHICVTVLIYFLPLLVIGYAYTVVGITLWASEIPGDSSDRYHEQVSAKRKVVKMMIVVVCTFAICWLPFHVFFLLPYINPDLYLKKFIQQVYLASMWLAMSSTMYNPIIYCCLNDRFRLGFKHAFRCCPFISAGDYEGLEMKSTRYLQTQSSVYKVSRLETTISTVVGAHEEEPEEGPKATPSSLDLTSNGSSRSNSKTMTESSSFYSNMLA

rat µ opioid receptor [3] = target: T3, rat µ opioid receptor (rat, UniProt P33535 1-398); test: cell-based or functional assay
T3 sequence (P33535 whole entry): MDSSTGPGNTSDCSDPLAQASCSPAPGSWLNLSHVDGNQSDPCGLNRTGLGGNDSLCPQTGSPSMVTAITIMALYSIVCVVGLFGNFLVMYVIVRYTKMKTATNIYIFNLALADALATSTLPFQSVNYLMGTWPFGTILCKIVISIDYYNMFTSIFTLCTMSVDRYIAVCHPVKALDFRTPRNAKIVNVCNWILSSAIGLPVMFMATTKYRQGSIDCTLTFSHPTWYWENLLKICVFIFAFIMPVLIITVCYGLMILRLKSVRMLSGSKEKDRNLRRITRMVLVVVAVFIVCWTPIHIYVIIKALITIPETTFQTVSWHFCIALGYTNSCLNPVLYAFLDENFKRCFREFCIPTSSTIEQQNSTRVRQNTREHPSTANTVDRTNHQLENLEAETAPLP

human δ opioid receptor [4] = target: T1, human δ opioid receptor; test: cell-based or functional assay
human δ opioid receptor [5] = target: T4, human δ opioid receptor (human, UniProt P41143 1-372); test: competition vs [3H]DPDPE, hDOR cell membranes
T4 construct: whole, on cells; membrane preparations of the transfected cells were used; also called hDOR; DOR
T4 sequence (P41143 whole entry, stated change not applied): as the sequence (P41143 whole entry, stated change not applied) above

human NK1 receptor [6] = target: T5, human NK1 receptor (human, UniProt P25103 1-407); test: competition vs [3H]Substance P, hNK1 CHO cell membranes
T5 construct: whole, on cells; membrane preparations of the transfected cells were used; also called hNK1; human neurokinin-1 receptor

rat µ opioid receptor [7] = target: T3, rat µ opioid receptor; test: cell-based or functional assay; remark: listed apart in the source
human δ opioid receptor [8] = target: T1, human δ opioid receptor; test: cell-based or functional assay; remark: listed apart in the source
human δ opioid receptor [9] = target: T1, human δ opioid receptor; test: competition vs [3H]DPDPE, membranes of hDOR-transfected HN9.10 cells; remark: listed apart in the source
rat NK1 receptor [10] = target: T2, rat NK1 receptor; test: competition vs [3H]substance P, membranes of rNK1-transfected CHO cells; remark: listed apart in the source
guinea pig NK1 receptor [11] = target: guinea pig NK1 receptor (guinea pig, UniProt P30547 1-407); test: cell-based or functional assay
Target sequence in this assay (P30547 whole entry): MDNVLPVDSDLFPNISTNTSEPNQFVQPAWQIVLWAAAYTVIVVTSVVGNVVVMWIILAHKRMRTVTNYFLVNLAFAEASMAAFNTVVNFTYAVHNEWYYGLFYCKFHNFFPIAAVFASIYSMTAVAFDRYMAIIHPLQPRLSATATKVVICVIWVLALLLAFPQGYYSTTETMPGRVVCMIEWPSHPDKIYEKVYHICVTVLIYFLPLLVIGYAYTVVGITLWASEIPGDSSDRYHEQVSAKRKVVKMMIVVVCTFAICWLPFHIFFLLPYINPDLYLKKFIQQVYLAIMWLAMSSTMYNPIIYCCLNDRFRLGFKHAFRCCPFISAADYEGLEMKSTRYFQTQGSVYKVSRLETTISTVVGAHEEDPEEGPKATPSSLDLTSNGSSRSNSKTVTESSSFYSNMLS

[12] = target: µ opioid receptor of the guinea pig isolated ileum (guinea pig); test: cell-based or functional assay
human δ opioid receptor [13] = target: T1, human δ opioid receptor; test: ratio of Ki at rMOR to Ki at hDOR
rat µ opioid receptor [14] = target: T3, rat µ opioid receptor; test: competition vs [3H]DAMGO, membranes of rMOR-transfected HN9.10 cells
rat NK1 receptor [15] = target: T6, rat NK1 receptor (rat, UniProt P14600 1-407); test: competition vs [3H]Substance P, rNK1 CHO cell membranes
T6 construct: whole, on cells; membrane preparations of the transfected cells were used; also called rNK1; rNK-1
T6 sequence (P14600 whole entry): as the sequence (P14600 whole entry) above

guinea pig NK1 receptor [16] = target: guinea pig NK1 receptor (guinea pig, UniProt P30547 1-407); test: cell-based or functional assay; remark: listed apart in the source
Target sequence in this assay (P30547 whole entry): as the sequence (P30547 whole entry) above

rat µ opioid receptor [17] = target: T7, rat µ opioid receptor (rat, UniProt P33535 1-398); test: cell-based or functional assay; remark: listed apart in the source
T7 sequence (P33535 whole entry): as the sequence (P33535 whole entry) above

human δ opioid receptor [18] = target: T4, human δ opioid receptor; test: cell-based or functional assay; remark: listed apart in the source
[19] = target: µ opioid receptor of the guinea pig isolated ileum (guinea pig, UniProt P97266 1-98); test: cell-based or functional assay
human δ opioid receptor [20] = target: T4, human δ opioid receptor; test: competition vs [3H]DPDPE, hDOR cell membranes; remark: listed apart in the source
rat µ opioid receptor [21] = target: T7, rat µ opioid receptor; test: competition vs [3H]DAMGO, rMOR cell membranes
human NK1 receptor [22] = target: T5, human NK1 receptor; test: competition vs [3H]Substance P, hNK1 CHO cell membranes; remark: listed apart in the source

T5 sequence (P25103 whole entry): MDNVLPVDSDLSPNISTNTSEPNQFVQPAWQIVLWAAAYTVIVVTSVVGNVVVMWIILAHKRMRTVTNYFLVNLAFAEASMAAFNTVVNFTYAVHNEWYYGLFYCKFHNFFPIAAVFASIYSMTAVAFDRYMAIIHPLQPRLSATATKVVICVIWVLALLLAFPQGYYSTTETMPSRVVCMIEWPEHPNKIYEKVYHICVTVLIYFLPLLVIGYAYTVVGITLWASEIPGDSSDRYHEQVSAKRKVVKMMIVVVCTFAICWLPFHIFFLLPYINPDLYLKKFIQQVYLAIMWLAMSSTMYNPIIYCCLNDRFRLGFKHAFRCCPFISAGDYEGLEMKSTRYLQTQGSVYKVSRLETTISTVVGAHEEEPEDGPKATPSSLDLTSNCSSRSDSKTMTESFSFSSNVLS
µ opioid receptor of the guinea pig isolated ileum, sequence (P97266 whole entry): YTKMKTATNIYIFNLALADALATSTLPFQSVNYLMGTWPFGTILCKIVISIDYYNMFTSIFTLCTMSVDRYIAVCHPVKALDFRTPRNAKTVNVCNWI

Binder	Ki (human δ opioid receptor [1])	Ki (rat NK1 receptor [2])	LogIC50 (rat NK1 receptor [2])	[35S]GTPγS binding Emax (rat µ opioid receptor [3])	[35S]GTPγS binding EC50 (human δ opioid receptor [4])	[35S]GTPγS binding LogEC50 (human δ opioid receptor [4])	[35S]GTP-γ-S binding Emax (rat µ opioid receptor [7])	[35S]GTP-γ-S binding EC50 (human δ opioid receptor [8])	[35S]GTP-γ-S binding Emax (human δ opioid receptor [8])	[35S]GTP-γ-S binding LogEC50 (human δ opioid receptor [8])	Ki (human δ opioid receptor [9])	LogIC50 (human δ opioid receptor [9])	IC50 (rat NK1 receptor [10])	LogIC50 (rat NK1 receptor [10])	Substance P GPI antagonist Ke (guinea pig NK1 receptor [11])	GPI (µ) opioid agonist IC50 [12]	Ki(µ)/Ki(δ) (human δ opioid receptor [13])	[35S]GTP-γ-S binding EC50 (rat µ opioid receptor [7])	[35S]GTP-γ-S binding LogEC50 (rat µ opioid receptor [7])	Ki (rat µ opioid receptor [14])	also measured
B1	0.44 nM	700 nM	-5.6	47%	2.6 nM	-8.6	–	–	–	–	–	–	–	–	–	–	–	–	–	–	LogIC50 (human δ opioid receptor [1]): -9.1
B2	–	–	–	–	–	–	–	–	–	–	–	–	–	–	–	–	–	–	–	–	Ki (human δ opioid receptor [5]): 0.46 nM; Ki (human NK1 receptor [6]): 0.21 nM
B3	2.8 nM	0.29 nM	-9	46%	2.9 nM	-8.5	45%	2.9 nM	51%	-8.54	2.8 nM	-8.22	6.4 nM	-8.22	24.7 nM	359 nM	–	–	–	–	[35S]GTPγS binding Emax (human δ opioid receptor [4]): 48%
B4	–	–	–	–	–	–	39%	50.2 nM	35%	-7.3	36.1 nM	-7.11	15.6 nM	-7.83	5.4 nM	384 nM	0.75	41.7 nM	-7.38	27 nM	LogIC50 (rat µ opioid receptor [14]): -7.24; Substance P GPI agonist (A50), contraction relative to KCl (guinea pig NK1 receptor [11]): 0 % at 1 µM
B5	–	–	–	–	–	–	22%	16.8 nM	26%	-7.78	93 nM	-6.7	66.7 nM	-7.22	69.6 nM	–	4.1	345 nM	-6.46	381 nM	LogIC50 (rat µ opioid receptor [14]): -6.09; Substance P GPI agonist (A50), contraction relative to KCl (guinea pig NK1 receptor [11]): 0 % at 1 µM; GPI (µ) opioid agonist, % at 1 µM [12]: 9 % at 1 µM
B6	–	–	–	–	–	–	–	–	–	–	–	–	–	–	–	–	–	–	–	–	Ki (rat NK1 receptor [15]): 1.5 nM; GPI/LMMP SP antagonist Ke (guinea pig NK1 receptor [16]): 2.83 nM; GTP binding EC50 (rat µ opioid receptor [17]): 176 nM; GTP binding Emax (rat µ opioid receptor [17]): 28%; GTP binding EC50 (human δ opioid receptor [18]): 51.9 nM; GTP binding Emax (human δ opioid receptor [18]): 47%; GPI/LMMP IC50 [19]: 1890 nM; Ki (human δ opioid receptor [20]): 58.5 nM; Ki (rat µ opioid receptor [21]): 256 nM; Ki (human NK1 receptor [22]): 0.00027 nM
